Measurements reported in the supplement of paper PMC11246515.
± gives the standard deviation of the averaged measurements.

Test: total protein half-life in vivo (active degradation + dilution); higher = more stable protein
[1] = E. coli NCM3722 delta-clpP delta-lon delta-hslV, growth: N-lim chemostat, doubling time 6 h
[2] = E. coli NCM3722 delta-hslV, growth: N-lim chemostat, doubling time 6 h
[3] = E. coli NCM3722 delta-lon, growth: N-lim chemostat, doubling time 6 h
[4] = E. coli NCM3722 delta-smpB, growth: N-lim chemostat, doubling time 6 h
[5] = wild type E. coli NCM3722, growth: C-lim chemostat, doubling time 3 h
[6] = wild type E. coli NCM3722, growth: C-lim chemostat, doubling time 6 h
[7] = wild type E. coli NCM3722, growth: C-lim chemostat, doubling time 12 h
[8] = wild type E. coli NCM3722, growth: N-lim chemostat, doubling time 6 h
[9] = wild type E. coli NCM3722, growth: N-lim chemostat, doubling time 12 h
[10] = wild type E. coli NCM3722, growth: P-lim chemostat, doubling time 6 h
[11] = wild type E. coli NCM3722, growth: P-lim chemostat, doubling time 12 h
[12] = E. coli NCM3722 delta-clpP, growth: N-lim chemostat, doubling time 6 h

| Sequence | total protein half-life in vivo [1] | total protein half-life in vivo [2] | total protein half-life in vivo [3] | total protein half-life in vivo [4] | total protein half-life in vivo [5] | total protein half-life in vivo [6] | total protein half-life in vivo [7] | total protein half-life in vivo [8] | total protein half-life in vivo [9] | total protein half-life in vivo [10] | total protein half-life in vivo [11] | total protein half-life in vivo [12] |
| --- | --- | --- | --- | --- | --- | --- | --- | --- | --- | --- | --- | --- |
| MFVKLLRSVAIGLIVGAILLVAMPSLRSLNPLSTPQFDSTDETPASYNLAVRRAAPAVVNVYNRGLNTNSHNQLEIRTLGSGVIMDQRGYIITNKHVINDADQIIVALQDGRVFEALLVGSDSLTDLAVLKINATGGLPTIPINARRVPHIGDVVLAIGNPYNLGQTITQGIISATGRIGLNPTGRQNFLQTDASINHGNSGGALVNSLGELMGINTLSFDKSNDGETPEGIGFAIPFQLATKIMDKLIRDGRVIRGYIGIGGREIAPLHAQGGGIDQLQGIVVNEVSPDGPAANAGIQVNDLIISVDNKPAISALETMDQVAEIRPGSVIPVVVMRDDKQLTLQVTIQEYPATN [P0AEE3] | 7.33 ± 0.89 h | 5.79 ± 0.39 h | 5.86 ± 0.29 h | 6.21 ± 0.68 h | 3.25 ± 0.23 h | 5.91 ± 0.28 h | 11.3 ± 1.2 h | 5.98 ± 0.72 h | 13.8 ± 2.3 h | 7.16 ± 0.27 h | 12.1 ± 0.81 h |  |
| MGGISIWQLLIIAVIVVLLFGTKKLGSIGSDLGASIKGFKKAMSDDEPKQDKTSQDADFTAKTIADKQADTNQEQAKTEDAKRHDKEQV | 4.809 ± 0.026 h | 4.51 ± 0.3 h | 4.05 ± 0.54 h | 4.55 ± 0.22 h | 2.93 ± 0.082 h | 5.337 ± 0.019 h | 9.34 ± 0.37 h | 4.72 ± 0.21 h | 9.53 ± 2.4 h | 4.41 ± 0.37 h | 8.96 ± 0.53 h | 4.72 ± 0.96 h |
| MGKALVIVESPAKAKTINKYLGSDYVVKSSVGHIRDLPTSGSAAKKSADSTSTKTAKKPKKDERGALVNRMGVDPWHNWEAHYEVLPGKEKVVSELKQLAEKADHIYLATDLDREGEAIAWHLREVIGGDDARYSRVVFNEITKNAIRQAFNKPGELNIDRVNAQQARRFMDRVVGYMVSPLLWKKIARGLSAGRVQSVAVRLVVEREREIKAFVPEEFWEVDASTTTPSGEALALQVTHQNDKPFRPVNKEQTQAAVSLLEKARYSVLEREDKPTTSKPGAPFITSTLQQAASTRLGFGVKKTMMMAQRLYEAGYITYMRTDSTNLSQDAVNMVRGYISDNFGKKYLPESPNQYASKENSQEAHEAIRPSDVNVMAESLKDMEADAQKLYQLIWRQFVACQMTPAKYDSTTLTVGAGDFRLKARGRILRFDGWTKVMPALRKGDEDRILPAVNKGDALTLVELTPAQHFTKPPARFSEASLVKELEKRGIGRPSTYASIISTIQDRGYVRVENRRFYAEKMGEIVTDRLEENFRELMNYDFTAQMENSLDQVANHEAEWKAVLDHFFSDFTQQLDKAEKDPEEGGMRPNQMVLTSIDCPTCGRKMGIRTASTGVFLGCSGYALPPKERCKTTINLVPENEVLNVLEGEDAETNALRAKRRCPKCGTAMDSYLIDPKRKLHVCGNNPTCDGYEIEEGEFRIKGYDGPIVECEKCGSEMHLKMGRFGKYMACTNEECKNTRKILRNGEVAPPKEDPVPLPELPCEKSDAYFVLRDGAAGVFLAANTFPKSRETRAPLVEELYRFRDRLPEKLRYLADAPQQDPEGNKTMVRFSRKTKQQYVSSEKDGKATGWSAFYVDGKWVEGKK | 6.56 ± 0.22 h | 5.9165 ± 0.0035 h | 6.34 ± 0.074 h | 5.43 ± 0.18 h | 2.57 ± 0.091 h | 5.9591 ± 0.0017 h | 10.5 ± 0.44 h | 5.88 ± 0.34 h | 12.4 ± 0.35 h | 5.24 ± 0.54 h | 11.5 ± 0.38 h | 6.56 ± 0.69 h |
| MGKLTLLLLAILVWLQYSLWFGKNGIHDYTRVNDDVAAQQATNAKLKARNDQLFAEIDDLNGGQEALEERARNELSMTRPGETFYRLVPDASKRAQSAGQNNR [P0A6S5] | 5.44 h | 4.05 h | 4.37 h |  | 2.7 h | 4.69 ± 0.55 h |  | 3.47 h | 6.03 h |  | > 16 h | 3.17 h |
| MGLPPLSKIPLILRPQAWLHRRHYGEVLSPIRWWGRIPFIFYLVSMFVGWLERKRSPLDPVVRSLVSARIAQMCLCEFCVDITSMKVAERTGSSDKLLAVADWRQSPLFSDEERLALEYAEAASVTPPTVDDALRTRLAAHFDAQALTELTALIGLQNLSARFNSAMDIPAQGLCRIPEKRS | 6.87 ± 0.28 h | 6.22 ± 0.48 h | 6.463 ± 0.023 h | 5.67 ± 0.46 h | 2.74 ± 0.068 h | 5.52 ± 0.59 h | 12.1 ± 0.48 h | 6 ± 0.46 h | 11.3 ± 3.4 h | 6.48 ± 0.71 h | 13.1 ± 0.5 h | 6.4 ± 0.37 h |
| MGNNVVVLGTQWGDEGKGKIVDLLTERAKYVVRYQGGHNAGHTLVINGEKTVLHLIPSGILRENVTSIIGNGVVLSPAALMKEMKELEDRGIPVRERLLLSEACPLILDYHVALDNAREKARGAKAIGTTGRGIGPAYEDKVARRGLRVGDLFDKETFAEKLKEVMEYHNFQLVNYYKAEAVDYQKVLDDTMAVADILTSMVVDVSDLLDQARQRGDFVMFEGAQGTLLDIDHGTYPYVTSSNTTAGGVATGSGLGPRYVDYVLGILKAYSTRVGAGPFPTELFDETGEFLCKQGNEFGATTGRRRRTGWLDTVAVRRAVQLNSLSGFCLTKLDVLDGLKEVKLCVAYRMPDGREVTTTPLAADDWKGVEPIYETMPGWSESTFGVKDRSGLPQAALNYIKRIEELTGVPIDIISTGPDRTETMILRDPFDA [P0A7D4] | 4.49 ± 0.41 h | 4.567 ± 0.026 h | 4.73 ± 0.3 h | 4.3 ± 0.15 h | 3.04 ± 0.093 h | 5.86 ± 0.3 h | 10.4 ± 1.6 h | 4.39 ± 0.098 h | 7.26 ± 0.18 h | 6.09 ± 0.23 h | 10.6 ± 0.72 h | 4.35 ± 0.28 h |
| MGNRTKEDELYREMCRVVGKVVLEMRDLGQEPKHIVIAGVLRTALANKRIQRSELEKQAMETVINALVK [P0ACX5] |  | 3.93 h |  |  | > 4 h | 4.79 h |  |  | 15.3 h | 5.05 ± 1.9 h | 12.6 ± 1.2 h |  |
